Reference: article PMC3626604, “The C-Type Lectin of the Aggrecan G3 Domain Activates Complement” (PLoS ONE, 2013)

Biological target: T1, factor H (human (endogenous in normal human serum), UniProt P08603 19-1231)
T1 construct: complement factor H; also called FH
Test: ELISA; proteins coated (G3 fragments 5 µg/ml, fibromodulin 2.5 µg/ml); heat-inactivated normal human serum diluted in 50 mM Hepes pH 7.4, 150 mM NaCl, 2 mM CaCl2, 50 µg/ml BSA; 1 h at RT; detected with anti-FH
Details: one partner purified

T1 sequence (P08603 19-1231): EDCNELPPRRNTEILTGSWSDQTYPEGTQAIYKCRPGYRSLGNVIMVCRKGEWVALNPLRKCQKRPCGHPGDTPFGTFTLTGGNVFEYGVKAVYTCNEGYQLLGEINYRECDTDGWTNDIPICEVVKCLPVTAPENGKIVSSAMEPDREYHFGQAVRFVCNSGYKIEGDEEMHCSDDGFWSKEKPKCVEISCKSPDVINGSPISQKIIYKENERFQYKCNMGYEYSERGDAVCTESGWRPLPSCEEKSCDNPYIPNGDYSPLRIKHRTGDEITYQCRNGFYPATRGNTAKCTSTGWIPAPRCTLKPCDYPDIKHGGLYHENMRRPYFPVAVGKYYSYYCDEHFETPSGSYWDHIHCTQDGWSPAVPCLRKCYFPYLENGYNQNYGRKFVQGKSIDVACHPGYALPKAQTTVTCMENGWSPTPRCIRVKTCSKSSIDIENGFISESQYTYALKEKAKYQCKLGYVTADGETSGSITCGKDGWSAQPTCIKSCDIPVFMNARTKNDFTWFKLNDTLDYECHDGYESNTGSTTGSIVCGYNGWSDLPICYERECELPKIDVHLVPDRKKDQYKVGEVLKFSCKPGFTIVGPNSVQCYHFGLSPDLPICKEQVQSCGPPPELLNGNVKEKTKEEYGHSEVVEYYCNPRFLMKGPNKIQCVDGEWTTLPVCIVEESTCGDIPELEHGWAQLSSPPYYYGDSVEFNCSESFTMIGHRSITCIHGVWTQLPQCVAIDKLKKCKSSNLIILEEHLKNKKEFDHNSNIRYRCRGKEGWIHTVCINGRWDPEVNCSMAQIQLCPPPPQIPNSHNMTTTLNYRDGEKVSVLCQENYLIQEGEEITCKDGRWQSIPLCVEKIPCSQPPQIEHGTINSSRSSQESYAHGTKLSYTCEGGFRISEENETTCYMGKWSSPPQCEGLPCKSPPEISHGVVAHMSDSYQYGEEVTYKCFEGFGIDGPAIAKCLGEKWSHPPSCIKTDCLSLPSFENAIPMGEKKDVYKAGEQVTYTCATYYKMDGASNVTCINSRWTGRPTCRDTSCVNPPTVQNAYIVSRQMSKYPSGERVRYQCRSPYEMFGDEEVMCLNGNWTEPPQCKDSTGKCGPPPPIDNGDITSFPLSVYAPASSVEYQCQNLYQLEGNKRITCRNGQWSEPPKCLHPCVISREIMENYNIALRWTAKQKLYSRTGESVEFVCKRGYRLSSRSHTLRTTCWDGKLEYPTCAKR

binding result: binds
B1: recombinant bovine fibromodulin (natural protein, UniProt P13605 19-376, looked up)
chain: QYEEDSHWWFQFLRNQQSTYDDPYDPYPYEPYEPYPYGGEEGPAYAYGSPPQPEPRDCPQECDCPPNFPTAMYCDNRNLKYLPFVPSRMKYVYFQNNQISSIQEGVFDNATGLLWIALHGNQITSDKVGKKVFSKLRHLERLYLDHNNLTRIPSPLPRSLRELHLDHNQISRVPNNALEGLENLTALYLHHNEIQEVGSSMKGLRSLILLDLSYNHLRKVPDGLPSALEQLYLEHNNVFSVPDSYFRGSPKLLYVRLSHNSLTNNGLASNTFNSSSLLELDLSYNQLQKIPPVSTNLENLYLQGNRINEFSISSFCTVVDVMNFSKLQVLRLDGNEIKRSAMPADAPLCLRLASLIEI
notes: fibromodulin, bovine; source: recombinant
